Measured values from the supplement of paper PMC12764529.
± gives the half width of the 95% confidence interval.

Experiments:
[1] = folding stability dG unfold from trypsin proteolysis; higher = more stable
Outline: (§1)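 Mini-proteins designed to be under 80 residues and free of cysteine were carried in a PA-tagged cDNA display construct and digested with trypsin and with chymotrypsin. Each protease was applied at 11 threefold-diluted concentrations, alongside a no-protease condition, before sequencing. K50 came from Bayesian fitting of the sequencing counts, and unfolding free energy was obtained by comparing it with a sequence-predicted unfolded-state K50 and a shared folded-state K50, for each protease separately or for both together. Designs were retained only if their AlphaFold2 dimer inter-PAE exceeded 15.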

[2] = folding stability dG unfold from chymotrypsin proteolysis; higher = more stable
Outline: as §1

[3] = folding stability dG unfold (combined trypsin and chymotrypsin); higher = more stable
Outline: as §1

Sequence	folding stability dG unfold [1]	folding stability dG unfold [2]	folding stability dG unfold [3]
SAGGSAMKKTTATFYVRPDSLTVEIELGEKTKKLTFDPSVSIEEVKASLPDYVDEVKVKPASPSLSSAGGSA [r15_1058_JUSTAS]	-0.43 ± 0.24 kcal/mol	0.529 ± 0.27 kcal/mol	0.242 ± 0.14 kcal/mol
SAGGSAMKKVTVTVKFPDGTTYTFDMDTESEEEFEKKVREEALKRFPDIPLEDVEVTEVVVTPELLSAGGSA [r15_220_JUSTAS]	2.3 ± 0.16 kcal/mol	2.38 ± 0.039 kcal/mol	2.33 ± 0.12 kcal/mol
SAGGSAMKLVLTFPEGLPEIPLEELAKAIEDALPEDFEVKEIKVEPLPDGGLRLTFIVNDEEVEILSAGGSA [r15_451_TrMRF]	2.52 ± 0.062 kcal/mol	2.52 ± 0.017 kcal/mol	2.54 ± 0.048 kcal/mol
SAGGSAMKPGEPVEFNIMIKIRDPNGKPVGEIDIKVEYPKGQSESQMFDRARNEINNLAPEGHLEISAGGSA [r15_310_TrROS]	0.0892 ± 0.087 kcal/mol	0.486 ± 0.21 kcal/mol	0.396 ± 0.14 kcal/mol
SAGGSAMKVIRIRPDDPRVKELLKKLEDAGYEVRYDEETGELYVTLPDGKVLKFKSLEELKKAGFESAGGSA [r15_94_TrROS_Hall]	1.63 ± 0.029 kcal/mol	2.19 ± 0.1 kcal/mol	1.93 ± 0.088 kcal/mol
SAGGSAMKVVFYGDEASQKEIAEKAKKEGIEYEAYPGSREEILAYVKENYPDVKMIVYPEGKEYLISAGGSA [r15_712_JUSTAS]	0.0902 ± 0.072 kcal/mol	0.094 ± 0.18 kcal/mol	0.179 ± 0.073 kcal/mol
SAGGSAMPADEVVEVREITDPATGKKVTVVRNKETGRYFVRVENPDGETEVFEVPGMTAEELEELASAGGSA [r15_295_TrROS_Hall]	2.33 ± 0.056 kcal/mol	2.6 ± 0.051 kcal/mol	2.51 ± 0.1 kcal/mol
SAGGSAMPGMTLQELLDAIRALLPPGARARIYVRNPDGEVIELTDLDDITVEDLENAEIRIEIEPVSAGGSA [r15_144_TrROS_Hall]	3.7 ± 0.1 kcal/mol	4.01 ± 0.052 kcal/mol	3.88 ± 0.076 kcal/mol
SAGGSAMPIELDLVIEIPIDAHPDQTVEDLVEEIAERIRRLLPPDTVVELRVHLHPELGVALADVSSAGGSA [r15_739_TrMRF]	1.56 ± 0.039 kcal/mol	0.117 ± 0.087 kcal/mol	0.988 ± 0.081 kcal/mol
SAGGSAMPKFYLDENGNPVYELPEEPTINTPLKIGIFDEENNPAIEIEIPGSTPLEEIIQKIKDAASAGGSA [r15_309_TrMRF]	0.674 ± 0.065 kcal/mol	0.483 ± 0.14 kcal/mol	0.677 ± 0.2 kcal/mol
SAGGSAMPPGEPIGSFSFPFNNGGNLMISAYPGGEIKISWWGPDGRPHEHEFPVKVKPPPPEDEGKSAGGSA [r15_478_TrROS]	1.33 ± 0.053 kcal/mol	1.64 ± 0.07 kcal/mol	1.6 ± 0.19 kcal/mol
SAGGSAMPPNMKKVPISIHIPAENYKRDPDGKWKFTADELARHIQRGFRQRFGMPIKKIDVHVHPPSAGGSA [r15_415_TrROS]	-0.000463 ± 0.31 kcal/mol	0.00448 ± 0.31 kcal/mol	-0.0271 ± 0.21 kcal/mol
SAGGSAMRMERIKLPDGKDITIMRHPNEPRQYQLFFPGGRSISVNFPSPEEAIDHALEWIKNGKPFSAGGSA [r15_38_TrROS]	0.609 ± 0.12 kcal/mol	0.764 ± 0.13 kcal/mol	0.78 ± 0.097 kcal/mol
SAGGSAMSIPLEELIEYVKKPGYKITEKKLPNGTLEITITNPKTGKTTKVTVYPPPTFSVEIKPDPSAGGSA [r15_442_JUSTAS]	1.28 ± 0.034 kcal/mol	0.876 ± 0.12 kcal/mol	1.07 ± 0.091 kcal/mol
SAGGSAMSKDVLFENGARITKFFPGKNYVIIETSPENPELLKELGITVIKEGPNRIIVPAKDFLDESAGGSA [r15_984_TrMRF]	-1.28 ± 0.74 kcal/mol	-0.821 ± 0.78 kcal/mol	-0.864 ± 0.8 kcal/mol
SAGGSAMSLSDIKDVDVYRNPNGWYTAKLKIKDPNNGKDKEVNIHVPPGQTPEKAKNIAREILKELSAGGSA [r15_181_TrROS]	0.606 ± 0.03 kcal/mol	1.43 ± 0.11 kcal/mol	1.14 ± 0.086 kcal/mol
SAGGSAMSVDPVGERTTITILYKDKPVTVPTGPLEEVEREVAAVLEEIEAKTGRKISPDTEVSFVPSAGGSA [r15_496_JUSTAS]	-0.283 ± 0.3 kcal/mol	0.595 ± 0.17 kcal/mol	0.318 ± 0.16 kcal/mol
SAGGSAMTAEELARKLFPGAEVEVEVRLERNEDGSLSLRVEVRVRAAPPPEEEEVEEPEEVEEEEESAGGSA [r15_417_TrROS_Hall]	2.78 ± 0.16 kcal/mol	1.99 ± 0.052 kcal/mol	2.2 ± 0.28 kcal/mol
SAGGSAMTAEELKGMKVKITLKNGKKIEAKIKKVEVINGEIYIEIDGKKIKLKKNEKYKIEIVEKKSAGGSA [r15_355_TrROS_Hall]	1.84 ± 0.093 kcal/mol	2.22 ± 0.067 kcal/mol	2.06 ± 0.16 kcal/mol
SAGGSAMTIEIEAPVPAGVEVDATALFVTPDGYLYLAEVRSVGPGWARITIPVYRFDDNLDDPDFLSAGGSA [r15_909_TrMRF]	2.04 ± 0.045 kcal/mol	2.19 ± 0.042 kcal/mol	2.17 ± 0.051 kcal/mol
SAGGSAMTITEDGTLTLEIKVPEDAPEATVKVTVLTDGKTLGEADPATGKVTLKVPPDVEVKVEVASAGGSA [r15_180_TrMRF]	1.09 ± 0.074 kcal/mol	1.87 ± 0.045 kcal/mol	1.69 ± 0.13 kcal/mol

Sequence	folding stability dG unfold [1]	folding stability dG unfold [2]	folding stability dG unfold [3]
SAGGSAMTITVTEETDPNTDRKTTTVSLSPGVSEEVLEELKAEAEKKGAKLTVYPEEGVVTVVTPESAGGSA [r15_542_JUSTAS]	0.0631 ± 0.052 kcal/mol	0.311 ± 0.065 kcal/mol	0.224 ± 0.17 kcal/mol
SAGGSAMTITVTLTFKSEEEALAAIRELAEALGLEIESVEIRYDPETEEVTVTATIRLPPPPPELLSAGGSA [r15_254_TrROS_Hall]	2.73 ± 0.16 kcal/mol	2.62 ± 0.033 kcal/mol	2.75 ± 0.11 kcal/mol
SAGGSAMTKEEAKEYAEKRVKEEHPGWTVLGVEVTELPGKEVLTKVTVKPPENPDKTLEFEFKFPLSAGGSA [r15_627_JUSTAS]	2.34 ± 0.1 kcal/mol	2.61 ± 0.035 kcal/mol	2.54 ± 0.072 kcal/mol
SAGGSAMTPEEARARAEAIAEELAAEARAAGRAAEVTVEVTELPPELYRFTITFPGRTREVLLPVESAGGSA [r15_432_JUSTAS]	-0.18 ± 0.18 kcal/mol	-0.262 ± 0.15 kcal/mol	-0.16 ± 0.13 kcal/mol
SAGGSAMTPEELANVTVEVVTTTEPASPDLTLPDGTRLPPSTTVTTTTEVVVLPGGELLGTRVTVASAGGSA [r15_12_JUSTAS]	-0.375 ± 0.051 kcal/mol	1.03 ± 0.023 kcal/mol	0.644 ± 0.043 kcal/mol
SAGGSAMTTTTSTDPATNKTYVTVTFPKDEALVEEVKEELKKKGIKEIKVYEFPENDLVRVEITVGSAGGSA [r2_358_JUSTAS]	0.452 ± 0.098 kcal/mol	0.767 ± 0.13 kcal/mol	0.685 ± 0.14 kcal/mol
SAGGSAMTVKVRLRVRRRVFNEDGELVAEEELELEVEVEVRPPPPPPPPPLTAEELAEKLGLEPEDSAGGSA [r15_572_TrROS_Hall]	2.52 ± 0.093 kcal/mol	3.37 ± 0.074 kcal/mol	3.19 ± 0.39 kcal/mol
SAGGSAMTVTTLPDGSTVIHLPSGTTITITTAPDGTKPITITPPDGVPTTFPASVSLEDAIKAALSSAGGSA [r15_371_JUSTAS]	3.58 ± 0.044 kcal/mol	2.67 ± 0.034 kcal/mol	3.1 ± 0.032 kcal/mol
SAGGSAMVETKTFEFEFEFEFENPDGEPATVTVPVTVEVPVLVPVAAPGPPGANGPEKELEELEKESAGGSA [r15_728_TrMRF]	1.05 ± 0.096 kcal/mol	0.641 ± 0.065 kcal/mol	0.782 ± 0.13 kcal/mol
SAGGSAMVMITIKIKFPGNEVEINMPAEDLDELLSHPELGDNFEITEIEVMPIPPPPVDPEQAEEKSAGGSA [r15_460_TrROS]	1.21 ± 0.15 kcal/mol	0.885 ± 0.11 kcal/mol	1.03 ± 0.24 kcal/mol
SAGGSAMVTPEERVEAALAYIRGKYGFPLSATPAQLREAGLPVRVELTVTDADGRPLATVTLEIPGSAGGSA [r15_391_TrMRF]	1.39 ± 0.037 kcal/mol	1.78 ± 0.089 kcal/mol	1.65 ± 0.07 kcal/mol
SAGGSAMVTVTRYPDGTYVVEATGRGDSRTFTLDLPLEEIKEVLEKEGIKIDKIEVKPAPVDPAKVSAGGSA [r15_576_JUSTAS]	1.268 ± 0.012 kcal/mol	1.5 ± 0.034 kcal/mol	1.4 ± 0.05 kcal/mol
SAGGSAMVVTVPASSLTPESIRALARENPGPVELVFPEEGRRVTVEVRGDGVVRVEEHPLDPAELASAGGSA [r15_751_JUSTAS]	-1.07 ± 0.19 kcal/mol	-0.536 ± 0.1 kcal/mol	-0.621 ± 0.083 kcal/mol
SAGGSAMYEVTEEKDPNSDYTTVTITFPNGATVTITYNPKTNTITADVDPAVDPEVAAAAAKAVLSSAGGSA [r15_511_JUSTAS]	1.92 ± 0.067 kcal/mol	2.39 ± 0.028 kcal/mol	2.23 ± 0.071 kcal/mol
SAGGSANNPKPRIIEIPIQFDWPPGDPQQMRNLAETIADEFSDPGYRVEIDEFTPDYFMFNIKIEWSAGGSA [r15_563_TrROS]	2.13 ± 0.1 kcal/mol	2.937 ± 0.025 kcal/mol	2.72 ± 0.12 kcal/mol
SAGGSAPDNKPKPVVREVEFWIMIPFKSAEQAKEIVEELMKFFGGLKVEILEVHPDGYAMIKITIYSAGGSA [r15_387_TrROS]	3.68 ± 0.13 kcal/mol	5.38 ± 0.072 kcal/mol	5.15 ± 0.11 kcal/mol
SAGGSAPEPVEFTLGHPDGVPYRVTLTRLPDTDLYLVTVEFPGPEVTFTGVAPLEVLENIPGLTPVSAGGSA [r15_622_TrMRF]	1.53 ± 0.035 kcal/mol	1.88 ± 0.09 kcal/mol	1.72 ± 0.068 kcal/mol
SAGGSAPESVKPPVVVVTLVLEFPDGRKLTIPVAHEELAEALEVALALPLALEHDTKLVKVEKANVSAGGSA [r15_140_TrMRF]	0.265 ± 0.12 kcal/mol	0.736 ± 0.16 kcal/mol	0.558 ± 0.15 kcal/mol
SAGGSAPEVRLSASREGNTVTVLALKPVGDRTYLVVTTYEVRELGEGFLVLSSSEVIPLPDGEGFFSAGGSA [r15_725_TrMRF]	1.626 ± 0.015 kcal/mol	2.66 ± 0.044 kcal/mol	2.36 ± 0.032 kcal/mol
SAGGSAPFVPPGFVKSVEEFEVTFPDGSKYRVTLIEVDGGPLVLVEKPGVGEPKTLPFEKLLELLASAGGSA [r15_329_TrMRF]	1.88 ± 0.11 kcal/mol	1.36 ± 0.075 kcal/mol	1.73 ± 0.13 kcal/mol
SAGGSAPKPDWIVRIEITVKFPGKTKKIDIVIDSPEALNQIINELKDEGFKDVEPKIEWVPLEEMKSAGGSA [r15_1015_TrROS]	0.296 ± 0.089 kcal/mol	1.21 ± 0.17 kcal/mol	0.915 ± 0.26 kcal/mol
